Experiment: yeast display, Sf9 membrane polyspecificity reagent, FACS + sequencing; frameworks hold sequencing errors
How it was run: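 Galactose-induced (36–48 hours) yeast carrying a synthetic nanobody display library were exposed to 10% biotinylated, detergent-solubilized Sf9 membrane reagent at 4 °C for 1 hour. FACS followed streptavidin microbead enrichment, using low and high (top ~1%) gates for expression (anti-HA) and reagent binding (streptavidin). Colony PCR, MiSeq 2 × 250 sequencing and CDR-length filtering followed. Labels for polyreactivity reflect the gate of origin.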

| Sequence | polyreactivity (PSR sort gate) |
| --- | --- |
| QVQLVESGGGLVQAGGSLRLSCAASGSTFSYYTMGWYRQAPGKERELVADIDSGDDTYYADSVKGRFTISRDNAKNTVYLQMNSLKPEDTAVYYCATEFNRPHFTVRVRFKYYYWGQGTQVTVSS | low polyreactivity |
| QVQLVESGGGLVQAGGSLRLSCAASGSTFSYYTMGWYRQAPGKERELVAGISYSGGRTYYADSVKGRFTSSRDKAKNTVYLQMNSLKPEDTAVYYCAKVSWRRGAFYYWGQGTQVTVSS | high polyreactivity |
| QVQLVESGGGLVQAGGSLRLSCAASGSTFSYYTMGWYRQATGKERELVAAISGSGGSTYYADSVKGRFTISRDNAKNTVYLQMKSLKPEDTAVYYCAALRAGSKCFDFWGQGTQVTVSS | high polyreactivity |
| QVQLVESGGGLVQAGGSLRLSCAASGSTFTAYAMGWYRQATREDRELVARIGGTYYADSVKGRFTISRDNAKNTVYLQMNSLKPEDTAVYYCAAEYGYDFFRSYQEYGYWGQGTQVTVSS | low polyreactivity |
| QVQLVESGGGLVQAGGSLRLSCAASGSTFTDYAMGWYRQAPGKERELVAAITNSGSSTNYEDSVKGRFTISRDNAKNTVYLQMNSLKPEDTAVYYCNASSYPWEYYYLYYGYDYWVQGTQVTVSS | low polyreactivity |
| QVQLVESGGGLVQAGGSLRLSCAASGSTFTDYAMGWYRQAPGKERELVASITSGGRTNYADSVKGRFTISRDNAKNTVYLQMNSLKPEDTAVYYCNASAWLVVARTRYGYWGQGTQVTVSS | low polyreactivity |
| QVQLVESGGGLVQAGGSLRLSCAASGSTFTDYTMGWYRQAPGKERELVARIRSRGARTYYADSVKGRFTISRDNAKNTVYLQMNSLKPEDTAVYYCAAAGVRSYAGDYWGQGTQVTVSS | high polyreactivity |
| QVQLVESGGGLVQAGGSLRLSCAASGSTFTFNAMVWYRQAPGKERELVAAITTSAGSTYYADSVKGRFTISRDNAKNTVYLQMSSLKPEDTAVYYCAARYVPPWGRRYYYWGQGTQVTVSS | high polyreactivity |
| QVQLVESGGGLVQAGGSLRLSCAASGSTFTGNAMGWYRQAPGKERELVAAISRSGGRTYYADSVKGRFTISRDNAKNTVYLQMNILKPEDTGVYYCNAVRNRGQRTAFDYWGQGTQVTVSS | high polyreactivity |
| QVQLVESGGGLVQAGGSLRLSCAASGSTFTGNAMGWYRQAPGKERELVASINGSSGSTYYADSVKGRFTISRDNAKNTVYLQMNSLKPEDTAVYYGAKDSFLHFPRVGWVGLEYWGQGTQVTVSS | low polyreactivity |
| QVQLVESGGGLVQAGGSLRLSCAASGSTFTGYALGWYRQAPGKERELVAAISSGGSTYYADSVKGRFTISRDNAKNTVYLQMNSLKPEDTAVYYCAAAPRWKASRLYYWGQGTQVTVSS | high polyreactivity |
| QVQLVESGGGLVQAGGSLRLSCAASGSTFTGYAMGWYRQAPGKERELVAGISVTGGNTYYADSVKGRFTISRDNAKKTVYLQMNSLKPEDTAVYYCNAVVLSYYAGEMDYWGQGTQVTVSS | low polyreactivity |
| QVQLVESGGGLVQAGGSLRLSCAASGSTFTHYAMGWYRQAPGKERELVAAISSRGGSTYADSVKGRFTISRDNAKNTVYLQMNSLKPEDTAVYYCAARYRLYYYFRFDWGQGTQVTVSS | high polyreactivity |
| QVQLVESGGGLVQAGGSLRLSCAASGSTFTIYAMGWYRQAPGTERELVATIRAGGGRTSYADSVKGRFTISRDNAKNTVYLQMNSLKPEETAVYYCAVYVRPTRYGYWGQGTQVTVSS | high polyreactivity |
| QVQLVESGGGLVQAGGSLRLSCAASGSTFTIYAYGWYRQAPGKERELVAAITRGGGRTYYADSVKGRFTISRDNAKNTVFLQMNSLKPEVTAVYYCAAYYAHEFDYRGQGTQVTVSS | high polyreactivity |
| QVQLVESGGGLVQAGGSLRLSCAASGSTFTKYAMGWYRQAPGQERELVAAITASGGNTYYADSVKGRFTISRDNAKNTVYLQMNSLKPEDTAVYSCAAVTGLFYHPFYKYNYWGQGTQVTVSS | high polyreactivity |
| QVQLVESGGGLVQAGGSLRLSCAASGSTFTKYDMGWYRQAPGKERELVAAIRSGGDTNYADSVKGRFTISRDNAKNTVYLQMNSLKPEDTAVYYCAATVLGDYEYWGQGTQVTVSS | low polyreactivity |

— the nanobody polyreactivity screen of Harvey et al. (2022)
